Laboratory results published in US20150315569A1, “METHOD FOR SCREENING A NUCLEIC ACID-PROGRAMMED SMALL MOLECULE LIBRARY” (The Board of Trustees of the Leland Stanford Junior …, priority 2014, published 2015).

Assays:
protein kinase A = molecular target: T1, protein kinase A (Mus musculus, UniProt P05132); test: Selection for protein kinase A substrates from the DNA-programmed peptide library; gene/peptide enrichment by Illumina sequencing; assay type: biochemical, murine; conditions: for LTFE: In (total fold enrichment) after four rounds: after four rounds of PKA substrate selection, kinase-treated vs control population; for Rank: position on list of peptides ranked by fold enrichment: calculated by summing reads over the 1296 genes encoding each peptide, peptide-DNA conjugates
T1 construct: purchased New England Biolabs P6000L
Description: Programmed library synthesis was carried out by a series of DNA-directed library splitting steps followed by chemical coupling steps. For the splitting steps, the ssDNA library was hybridized to an anticodon array overnight at 37° C. using a mesofluidic hybridization pump (see, e.g., Weisinger et al. (2012) PLoS ONE, 7, e28056). The anticodon array with bound DNA was then mounted into a plate adapter device which uses rubber gaskets to form an isolated liquid channel above and below each array feature. The adapter device was placed on top of a 384-well polypropylene filterplate loaded with 5 μl aliquots of DEAE sepharose resin. DNA was eluted from each feature of the anticodon array onto the DEAE resin in the corresponding well of the filterplate by application of a denaturing buffer (10 mM NaOH with 1 mM EDTA and 0.005% Triton X-100) followed by gentle centrifugation of the stack (140×g for 1 minute). The DEAE resin in the filter plate was then washed three times with 85 μl H2O and three times with 85 μl dry methanol. Peptide couplings were performed using EDC and HOAt in methanol and DMF (see, e.g., Halpin et al., (2004) PLoS Biology, 2, E174). Following the synthetic steps, the filterplate was placed on top of a 384-well polypropylene microtiter plate, and DNA was eluted from the DEAE resin by application of a high salt buffer (1.5 M NaCl, 50 mM NaOH, 1 mM EDTA, and 0.005% Triton X-100) followed by gentle centrifugation. The eluted DNA was pooled, concentrated and buffer exchanged into hybridization buffer using a centrifugal filter device with a 10,000 Da molecular weight cut-off (GE Healthcare). BSA and tRNA were added to 0.5 mg/ml each. The sample was diluted to 3 ml with hybridization buffer and applied to another anticodon array. Following the final step of the chemical synthesis, the eluted DNA was split by hybridization for 3 hours at 37° C. to a pair of anticodon columns derivatized with the VE001 and VE002 anticodon sequences. The two halves of the library were concentrated with n-butanol extractions, precipitated with isopropanol, and subjected to kinase-substrate/mock selections respectively.
Translated libraries were incubated in PKA buffer (NEB) overnight at 30° C. with 10,000 units of protein kinase A and 1 mM ATPγS. For the selection between the third and fourth generations, the incubation was shortened to 1 hour at 30° C. Mock selections were performed identically, with the enzyme replaced by a 50% glycerol solution. After incubation, the crude reactions were diluted 1.5-fold and adjusted to 100 mM NaOAc pH 5.2 and 25% dimethyl formamide. EZ-Link iodoacetyl-LC-biotin (Pierce Thermo Fisher Scientific, catalog #21333) was added to 600 μM. After 3 hours in the dark at 25° C., the enzyme-treated library was cleaned up by extraction with phenol: chloroform and n-butanol, and then precipitation with isopropanol. The library was resuspended in 27.5 μl bind buffer (10 mM Tris pH 7.4, 1 mM EDTA, 1 M NaCl), and 1.25 mg/ml tRNA and 0.25 mg/ml BSA were added. The library was then incubated with 15 μl of μMACS streptavidin microbeads (MiltenyiBiotec, 130-074-101) overnight at room temperature. The microbeads were purified and washed over MACS columns according to the manufacturer's instructions, and the purification process was repeated a second time. DNA was amplified directly off of the streptavidin beads by PCR.
25 pmol of amplified DNA was used as a template in a PCR reaction that appended Illumina adaptor sequences. The PCR product was quantified on an Agilent 2100 Bioanalyzer, and a 10 nM solution was submitted to the Stanford Functional Genomics Facility for sequencing using custom primers. Paired-end 150-bp reads were obtained on a MiSeqIllumina Sequencer.
The sequencing data were processed using scripts written in either AWK or MATLAB. […]

[1] = system: T2, Kemptide heptapeptide LRRASLG (SEQ ID NO: 10)
T2 sequence: LRRASLG

RMSF (SEQ ID NO: 7) = system: T3, RMSF (SEQ ID NO: 7)
T3 sequence: RMSF

RRASL (SEQ ID NO: 3) = system: T4, RRASL (SEQ ID NO: 3)
T4 sequence: RRASL

RRFSV (SEQ ID NO: 4) = system: T5, RRFSV (SEQ ID NO: 4)
T5 sequence: RRFSV

RRMS (SEQ ID NO: 9) = system: T6, RRMS (SEQ ID NO: 9)
T6 sequence: RRMS

RRMSV (SEQ ID NO: 5) = system: T7, RRMSV (SEQ ID NO: 5)
T7 sequence: RRMSV

RRMTV (SEQ ID NO: 6) = system: T8, RRMTV (SEQ ID NO: 6)
T8 sequence: RRMTV

RRSF (SEQ ID NO: 8) = system: T9, RRSF (SEQ ID NO: 8)
T9 sequence: RRSF

RRSFV (SEQ ID NO: 2) = system: T10, RRSFV (SEQ ID NO: 2)
T10 sequence: RRSFV

Substance | LTFE: In (total fold enrichment) after four rounds (protein kinase A) | Rank: position on list of peptides ranked by fold enrichment (protein kinase A; fourth generation) | also measured
RMSF | 7.6 | 147 | –
RRASL (sythetic peptide) | 10.6 | 20 | –
RRFSV | 10.2 | 33 | –
RRMS | 3.0 | 1846 | –
RRMSV | 9.5 | 51 | –
RRMTV | 8.4 | 95 | –
RRSF | 6.3 | 253 | –
RRSFL | – | – | peptide enrichment in the fourth generation library (result in words) (protein kinase A; reads of the 6^4 (1296) genes per peptide summed): most highly enriched peptide
RRSFV | 11.1 | 7 | median enrichment of the genes encoding the peptide (protein kinase A; fourth generation, single genes (one codon per amino acid model)): 175,000 fold
catalytic subunit of murine cAMP-activated protein kinase A | – | – | Rel. kcat/Km (relative to Kemptide) [1]: 1; Rel. kcat/Km (relative to Kemptide) (RMSF (SEQ ID NO: 7)): 0.0028; Rel. kcat/Km (relative to Kemptide) (RRASL (SEQ ID NO: 3)): 0.27; Rel. kcat/Km (relative to Kemptide) (RRFSV (SEQ ID NO: 4)): 4.1; Rel. kcat/Km (relative to Kemptide) (RRMS (SEQ ID NO: 9)): 0.028; Rel. kcat/Km (relative to Kemptide) (RRMSV (SEQ ID NO: 5)): 2.2; Rel. kcat/Km (relative to Kemptide) (RRMTV (SEQ ID NO: 6)): 0.031; Rel. kcat/Km (relative to Kemptide) (RRSF (SEQ ID NO: 8)): 0.05; Rel. kcat/Km (relative to Kemptide) (RRSFV (SEQ ID NO: 2)): 0.16
